B1: At1g74130 M: 7/8 M-form splice variant of Arabidopsis At1g74130 rhomboid protein (protein, listed as Arabidopsis thaliana)
chain: MHAIFCRRVAVGCSSPQLTKLVTKQASQSRHSLSHLLPFDLSSRFVPPYVVSRSARVHGFFAGKLGNTNLKLKFGNVMESRAGFFSSELPSHGFESGGFTGFQKRGWKSWINGANGVVFGLVIANAAVFTMWRVLGKDNMWMVKNFMLSRYSFMTGRIHTLITSGFSHVGATHIILNMMGLCYFGARIARSFGPRYLLKLYFAGALGGSVFFLSSHALSVISLKGQRVVPKDQLKVPIGKLGANGPVYAITLLDMLLYPKVTTYFGLMLRVPVFAGIYSLGLNIIKMLEVCMMGKTTIP
B2: At1g74130 S: 6/7 S-form splice variant of Arabidopsis At1g74130 rhomboid protein (protein, listed as Arabidopsis thaliana)
chain: MHAIFCRRVAVGCSSPQLTKLVTKQASQSRHSLSHLLPFDLSSRFVPPYVVSRSARVHGFFAGKLGNTNLKLKFGNVMESRAGFFSSELPSHGFESGGFTGFQKRGWKSWINGANGVVFGLVIANAAVFTMWRVLGKDNMWMVKNFMLSRYSFMTGRIHTLITSGFSHVGATHIILNMMGLCYFGARIARSFGPRYLLKLYFAGALGGSVFFLSSHALSVISLKGQRVVPKDQLKVPIGKLGANGPVYAITLLDMLLYPKVTTYFGLMLRVPVFAVRESIA

Key:
[1] = tested on: Pseudomonas aeruginosa; experiment: Enhancement of peptide delivery into Pseudomonas aeruginosa; format: cell-based; conditions: nine amino acid peptides targeting Type II secretion pseudopilin subunit
Source text: With the Pseudomonas assay system described above, it was also possible to assess the ability and the utility of At1g74130 protein variants in the delivery of other peptides into cells. The assays were designed in the same manner as above to determine if peptide delivery can be enhanced or facilitated by rhomboids. The other peptides used were designed to inhibit protein secretion, in this case, lipases. The peptides used in these assays were nine amino acids long and targeted a specific region of one protein subunit of the Type II secretion machinery pseudopilin. The inhibitory actions of this nine amino acid peptide are due to interactions with the target region of the protein subunit. If peptide delivery was facilitated or enhanced by rhomboids, outcomes may be observed by changes in cell/colony growth (Pseudomonas) on the minimal media-olive oil plates. Such changes in growth would reflect changes in lipase secretion, which is needed for breaking down olive oil so that the released carbon can be used for cell growth.
The delivery of the M variant further into the cell releases the impairment and allows growth to resume (i.e., the assay with elution buffer, DMSO, and M). […]

[2] = tested on: E. coli; experiment: Colony formation of At1g74130-expressing E. coli on agar with increasing ampicillin; format: cell-based, Escherichia coli; conditions: protein expressed in E. coli JM109(DE3) from pET20b; solid agar media; susceptibility at higher concentrations
Procedure: Introduction and expression of At1g74130 was tested in E. coli, by subcloning the corresponding cDNA sequence into a T7 promoter-containing plasmid vector (pET20b) and JM109(DE3), a bacterial strain commonly used for expressing foreign proteins. Two alternative splice variants of At1g74130 were derived by RT-PCR cloning and tested along with the full version of At1g74130, also derived by RT-PCR cloning (see, e.g., FIGS. 3, 4, and 5). The alternative splice variants designated 6/7 and 7/8 are shown in FIGS. 1C and 1D, respectively. A similar procedure was used to express the At1g25290 and UBAC2 variants (see FIGS. 6, 7, and 8).
Alterations to protein translocation were investigated using the plasmid-borne multicopy gene, β-lactamase. The level of β-lactamase is a sensitive monitor of protein translocation and is translocated into the periplasm, where it detoxifies the antibiotic ampicillin, thereby conferring ampicillin-resistance to cells. Because the level of antibiotic resistance conferred also reflects the level of protein transport activity, the level of ampicillin resistance was determined for At1g74130 expressing cells and compared to that of control vector-containing cells on solid agar media containing increasing concentrations of ampicillin. […]

[3] = tested on: MDA-MB-231 breast cancer cells; experiment: MTT viability assay, sensitization to lapatinib; format: cell-based, human; conditions: co-treatment with lapatinib; most prominent at 10 or 15 uM after 48 and 72 hours; 5 or 10 ug protein
Source text: Experiments were thus conducted to assess the ability of At1g74130 proteins or variants to enhance the sensitivity of two breast cancer cell lines to the chemotherapeutic drug lapatinib. The breast cancer cell lines selected for these assays were MDA-MB-231 and MDA-MB-468, two cell lines used frequently in cancer research. Any impact on the cells' ability to pump or transport drugs (in and out) may alter the efficacy a chemotherapeutic drug, e.g., by enhancing levels of cell death) or by increasing effectiveness at lower dosage levels. The design of the breast cancer cell assays was similar to that used for bacteria in the above examples, results, and figures. In these studies, the widely used MTT (methyl thiazolyl diphenyl-tetrazolium bromide) viability assay procedure was used to assess any impact exerted by At1g74130 variant S (see, for example, the MTT procedure described by Nagaria, T. S., et al., Flavopiridol synergizes with sorafenib to induce cytotoxicity and potentiate antitumorigenic activity in EGFR/HER-2 and mutant RAS/RAF breast cancer model systems, Neoplasia, 15:939-951, 2013).
Cells were cultured at 37° C. in 96-well plates (10,000 cells in 100 ul media per well) for 24-48 hours to near confluency. […] The assays were then read at 570 nm using a microplate scanning spectrophotometer. […]

Molecule	peptide delivery into cells [1]	ampicillin concentration at which expressing cells form colonies [2] [mg/mL]	increase in level of cell death [3] [%]
B1	facilitation and/or enhancement of peptide delivery	1.5	–
B2	–	–	20 to 40

— patent publication US20160129078A1, “Rhomboid Proteins and Uses Thereof” (Queen's University at Kingston, priority 2014, published 2016)
